Experimental data: patent publication US20250163223A1, “HYDROGEL INCLUSION COMPLEX INCLUDING PHYSIOLOGICALLY ACTIVE MATERIAL BOUND TO THERMOSENSITIVE POLY(PHOSPHAZENE) BY HOST-GUEST INTERACTION USING BETA-CYCLODEXTRIN AND USE THEREOF” (KOREA INSTITUTE OF SCIENCE AND TECHNOLOGY, priority 2019, published 2025)
Ends that are not written are not given here. PEG = not defined here

Test: Dynamic light scattering (DLS) particle size in aqueous environment
Assay type: physicochemical
Source text: In this example, it was hypothesized that binding affinity between β-CD and Ad-RGD would induce the well-controlled guest molecule amount through the Ad-RGDs inserted at different amounts with one another. First of all, β-CD PPZ and β-CD PPZ+Ad-RGD gave different results from measurement of dynamic light scattering (DLS). […] As Ad-RGDs were included in β-CD PPZ, the practical size of aqueous particles of β-CD PPZ+Ad-RGD was increased.
Further, to identify whether Ad-peptides were stoichiometrically and accurately inserted into the host molecules, dynamic light scattering (DLS) measurement was performed by mixing host molecules and guest molecules such that the ratio of host molecule: guest molecule was 1:1, 1:1.2, and 0:1. […] In this DLS result of the conjugate in which the ratio of host molecule:guest molecule was 1:1, any peaks involved in guest molecules alone were not shown (C of FIG. 17). It means that there were no guest molecules separated from β-CD PPZ. […] This means that all of the Ad-peptides were incorporated into the conjugates of β-CD PPZ and Ad-peptide (host molecule:guest molecule=1:1) in the aqueous environment. On the other hand, it was confirmed that when Ad-peptides was excessively mixed with β-CD PPZ (host molecule: guest molecule=1:1.2), the surplus Ad-peptides formed their own other peaks analogous to those of Ad-TGF and Ad-HAV alone (FIG. 18). […]

Substance	average particle size [nm]
adamantane-PEG-CESPLKRQ ({adamantane-PEG}-CESPLKRQ; reading uncertain) [Ad-TGF, TGF-β1 mimic peptide linked to adamantane via PEG]	353.63±31.71
adamantane-PEG-CLRAHAVDIN ({adamantane-PEG}-CLRAHAVDIN; not fully specified; reading uncertain) [Ad-HAV, N-cadherin mimic peptide linked to adamantane via PEG]	460.78±49.53
